Measurements as given in patent US20160272683A1 (Novo Nordisk, published 2016).
Numbered stars: 1 amine (or outer) side, 2 acyl side, 3 side chain; on linkers, the order of the positions; unused ones are H or OH. * marks the point of attachment. C20 diacid = O=C(O)CCCCCCCCCCCCCCCCCCC(=O)*; γGlu = O=C(O)[C@H](CCC(=O)[*:2])N[*:1]

T1: human amylin 3(a) receptor (human calcitonin receptor co-expressed with RAMP-3) (human, UniProt P30988 25-474; O60896 24-148, limits assumed)
T1 sequence (looked up) 1: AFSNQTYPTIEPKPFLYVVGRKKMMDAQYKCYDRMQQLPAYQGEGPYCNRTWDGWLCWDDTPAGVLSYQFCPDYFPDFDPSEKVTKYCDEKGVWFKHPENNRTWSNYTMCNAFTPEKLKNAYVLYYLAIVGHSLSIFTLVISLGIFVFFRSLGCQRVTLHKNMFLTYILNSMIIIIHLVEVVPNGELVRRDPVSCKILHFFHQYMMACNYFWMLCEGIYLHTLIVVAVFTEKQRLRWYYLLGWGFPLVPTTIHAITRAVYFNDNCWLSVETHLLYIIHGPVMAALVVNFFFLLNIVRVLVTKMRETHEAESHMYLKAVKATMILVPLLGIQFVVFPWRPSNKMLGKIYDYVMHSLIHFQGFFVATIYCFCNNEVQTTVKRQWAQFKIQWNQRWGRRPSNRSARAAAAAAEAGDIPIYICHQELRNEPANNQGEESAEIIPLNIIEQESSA
T1 sequence (looked up) 2: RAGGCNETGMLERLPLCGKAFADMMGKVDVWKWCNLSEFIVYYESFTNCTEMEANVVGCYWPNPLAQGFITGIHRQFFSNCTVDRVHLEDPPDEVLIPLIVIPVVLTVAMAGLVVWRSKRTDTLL

T2: human calcitonin receptor (human, UniProt P30988 25-474)
T2 sequence (looked up): T1 sequence (looked up) 1

B1: [N-terminal(C20 diacid-gGlu), des1, 9T, 21S, 23Y, 30S, 31G, 33Y]mimylin (peptide)
peptide: {C20 diacid-γGlu}-ASELSTATLGRLSAELHELSTYPRTETGSGSY-NH2
SMILES: CC(C)C[C@H](NC(=O)[C@H](CCCNC(=N)N)NC(=O)CNC(=O)[C@H](CC(C)C)NC(=O)[C@@H](NC(=O)[C@H](C)NC(=O)[C@@H](NC(=O)[C@H](CO)NC(=O)[C@H](CC(C)C)NC(=O)[C@H](CCC(=O)O)NC(=O)[C@H](CO)NC(=O)[C@H](C)NC(=O)CC[C@H](NC(=O)CCCCCCCCCCCCCCCCCCC(=O)O)C(=O)O)[C@@H](C)O)[C@@H](C)O)C(=O)N[C@@H](CO)C(=O)N[C@@H](C)C(=O)N[C@@H](CCC(=O)O)C(=O)N[C@@H](CC(C)C)C(=O)N[C@@H](Cc1c[nH]cn1)C(=O)N[C@@H](CCC(=O)O)C(=O)N[C@@H](CC(C)C)C(=O)N[C@@H](CO)C(=O)N[C@H](C(=O)N[C@@H](Cc1ccc(O)cc1)C(=O)N1CCC[C@H]1C(=O)N[C@@H](CCCNC(=N)N)C(=O)N[C@H](C(=O)N[C@@H](CCC(=O)O)C(=O)N[C@H](C(=O)NCC(=O)N[C@@H](CO)C(=O)NCC(=O)N[C@@H](CO)C(=O)N[C@@H](Cc1ccc(O)cc1)C(N)=O)[C@@H](C)O)[C@@H](C)O)[C@@H](C)O
B2: [N-terminal(C20 diacid-gGlu), des1, 9S, 21S, 23Y, 30S, 31G, 33Y]mimylin (peptide)
peptide: {C20 diacid-γGlu}-ASELSTASLGRLSAELHELSTYPRTETGSGSY-NH2
SMILES: CC(C)C[C@H](NC(=O)[C@H](CO)NC(=O)[C@H](C)NC(=O)[C@@H](NC(=O)[C@H](CO)NC(=O)[C@H](CC(C)C)NC(=O)[C@H](CCC(=O)O)NC(=O)[C@H](CO)NC(=O)[C@H](C)NC(=O)CC[C@H](NC(=O)CCCCCCCCCCCCCCCCCCC(=O)O)C(=O)O)[C@@H](C)O)C(=O)NCC(=O)N[C@@H](CCCNC(=N)N)C(=O)N[C@@H](CC(C)C)C(=O)N[C@@H](CO)C(=O)N[C@@H](C)C(=O)N[C@@H](CCC(=O)O)C(=O)N[C@@H](CC(C)C)C(=O)N[C@@H](Cc1c[nH]cn1)C(=O)N[C@@H](CCC(=O)O)C(=O)N[C@@H](CC(C)C)C(=O)N[C@@H](CO)C(=O)N[C@H](C(=O)N[C@@H](Cc1ccc(O)cc1)C(=O)N1CCC[C@H]1C(=O)N[C@@H](CCCNC(=N)N)C(=O)N[C@H](C(=O)N[C@@H](CCC(=O)O)C(=O)N[C@H](C(=O)NCC(=O)N[C@@H](CO)C(=O)NCC(=O)N[C@@H](CO)C(=O)N[C@@H](Cc1ccc(O)cc1)C(N)=O)[C@@H](C)O)[C@@H](C)O)[C@@H](C)O
B3: [N-terminal(C20 diacid-gGlu), des1, 4G, 9V, 23Y, 30S, 31G, 32T]mimylin (peptide)
peptide: {C20 diacid-γGlu}-ASGLSTAVLGRLSAELHELATYPRTETGSGTP-NH2
SMILES: CC(C)C[C@H](NC(=O)CNC(=O)[C@H](CO)NC(=O)[C@H](C)NC(=O)CC[C@H](NC(=O)CCCCCCCCCCCCCCCCCCC(=O)O)C(=O)O)C(=O)N[C@@H](CO)C(=O)N[C@H](C(=O)N[C@@H](C)C(=O)N[C@H](C(=O)N[C@@H](CC(C)C)C(=O)NCC(=O)N[C@@H](CCCNC(=N)N)C(=O)N[C@@H](CC(C)C)C(=O)N[C@@H](CO)C(=O)N[C@@H](C)C(=O)N[C@@H](CCC(=O)O)C(=O)N[C@@H](CC(C)C)C(=O)N[C@@H](Cc1c[nH]cn1)C(=O)N[C@@H](CCC(=O)O)C(=O)N[C@@H](CC(C)C)C(=O)N[C@@H](C)C(=O)N[C@H](C(=O)N[C@@H](Cc1ccc(O)cc1)C(=O)N1CCC[C@H]1C(=O)N[C@@H](CCCNC(=N)N)C(=O)N[C@H](C(=O)N[C@@H](CCC(=O)O)C(=O)N[C@H](C(=O)NCC(=O)N[C@@H](CO)C(=O)NCC(=O)N[C@H](C(=O)N1CCC[C@H]1C(N)=O)[C@@H](C)O)[C@@H](C)O)[C@@H](C)O)[C@@H](C)O)C(C)C)[C@@H](C)O

Target: T1, human amylin 3(a) receptor (human …)
Assay: cell-based or functional assay

First: B1
Second: B2
The “hAmylin-R funct. EC50 (pM)” value of the first is higher: 20 pM for the first, 17 pM for the second.

With B3 the “hAmylin-R funct. EC50 (pM)” value was 47 pM.

Target: T2, human calcitonin receptor
Assay: cell-based or functional assay

Compared with B1, B2 is lower in “hCTR funct. EC50 (pM)” value: 23 pM for the first, 16 pM for the second.

For B3, the “hCTR funct. EC50 (pM)” value was 28 pM.
